Data taken from the RNAGym collection of RNA variant scans (doi:10.7554/elife.80360).

B1: HDV Ribozyme (parent)
chain: GGCCGGCAUGGUCCCAGCCUCCUCGCUGGCGCCGGCUGGGCAACAUUCCGAGGGGACCGUCCCCUCGGUAAUGGCGAAUGGGACCCA

Variants of: B1
Assay: self-cleavage, relative activity (ratio to wild type); higher = more cleavage; co-transcriptional

Variant	self-cleavage
GGCCGGCAUGGUCCCAGCCUCCUCGCUGGCGCCGGCUGGGCAACAUUGCGAGGGGACCGUCCCCUCGGUAAUGGCGAAUGGUACCCA [C48G G82U]	0.284
GGCCGGCAUGGUCCCAGCCUCCUCGCUGGCGCCGGCUGGGCAACAUUGCGAGGGGACCGUCCCCUCGGCAAUGGCGAAUGGGACCCA [C48G U69C]	0.987
GGCCGGCAUGGUCCCAGCCUCCUCGCUGGCGCCGGCUGGGCAACAUUGCGAGGGGACCGUCCCCUCGGGAAUGGCGAAUGGGACCCA [C48G U69G]	0.712
GGCCGGCAUGGUCCCAGCCUCCUCGCUGGCGCCGGCUGGGCAACAUUGCGAGGGGACCGUCCCCUCGGUAAAGGCGAAUGGGACCCA [C48G U72A]	0.718
GGCCGGCAUGGUCCCAGCCUCCUCGCUGGCGCCGGCUGGGCAACAUUUCGAGGGGACCGUCCCCUCGGUAAUGGCGAAUGGGACCCA [C48U]	1.01
GGCCGGCAUGGUCCCAGCCUCCUCGCUGGCGCCGGCUGGGCAACAUUUCGAGGGGGCCGUCCCCUCGGUAAUGGCGAAUGGGACCCA [C48U A56G]	0.989
GGCCGGCAUGGUCCCAGCCUCCUCGCUGGCGCCGGCUGGGCAACAUUUCGAGGGGACCGUCCCCUCGGUAAUGGCGUAUGGGACCCA [C48U A77U]	0.356
GGCCGGCAUGGUCCCAGCCUCCUCGCUGGCGCCGGCUGGGCAACAUUUCGAGGGGACCGUCCCCUCGGUAAUGGCGAGUGGGACCCA [C48U A78G]	0.522
GGCCGGCAUGGUCCCAGCCUCCUCGCUGGCGCCGGCUGGGCAACAUUUCGAGGGGACCGUCCCCUCGGUAAUGGCGAAUGGGACCCG [C48U A87G]	1.07
GGCCGGCAUGGUCCCAGCCUCCUCGCUGGCGCCGGCUGGGCAACAUUUAGAGGGGACCGUCCCCUCGGUAAUGGCGAAUGGGACCCA [C48U C49A]	1.05
GGCCGGCAUGGUCCCAGCCUCCUCGCUGGCGCCGGCUGGGCAACAUUUGGAGGGGACCGUCCCCUCGGUAAUGGCGAAUGGGACCCA [C48U C49G]	0.982
GGCCGGCAUGGUCCCAGCCUCCUCGCUGGCGCCGGCUGGGCAACAUUUUGAGGGGACCGUCCCCUCGGUAAUGGCGAAUGGGACCCA [C48U C49U]	0.85
GGCCGGCAUGGUCCCAGCCUCCUCGCUGGCGCCGGCUGGGCAACAUUUCGAGGGGACCGUCCCUUCGGUAAUGGCGAAUGGGACCCA [C48U C64U]	0.997
GGCCGGCAUGGUCCCAGCCUCCUCGCUGGCGCCGGCUGGGCAACAUUUCGAGGGGACCGUCCCCUCGGUAAUGGCGAAUGGGAACCA [C48U C84A]	0.958
GGCCGGCAUGGUCCCAGCCUCCUCGCUGGCGCCGGCUGGGCAACAUUUCGAGGGGACCGUCCCCUCGGUAAUGGCGAAUGGGAUCCA [C48U C84U]	0.742
GGCCGGCAUGGUCCCAGCCUCCUCGCUGGCGCCGGCUGGGCAACAUUUCGAGGGGACCGUCCCCUCGGUAAUGGCGAAUGGGACUCA [C48U C85U]	1.14

Variant	self-cleavage
GGCCGGCAUGGUCCCAGCCUCCUCGCUGGCGCCGGCUGGGCAACAUUUCAAGGGGACCGUCCCCUCGGUAAUGGCGAAUGGGACCCA [C48U G50A]	0.888
GGCCGGCAUGGUCCCAGCCUCCUCGCUGGCGCCGGCUGGGCAACAUUUCGACGGGACCGUCCCCUCGGUAAUGGCGAAUGGGACCCA [C48U G52C]	0.847
GGCCGGCAUGGUCCCAGCCUCCUCGCUGGCGCCGGCUGGGCAACAUUUCGAGUGGACCGUCCCCUCGGUAAUGGCGAAUGGGACCCA [C48U G53U]	0.923
GGCCGGCAUGGUCCCAGCCUCCUCGCUGGCGCCGGCUGGGCAACAUUUCGAGGCGACCGUCCCCUCGGUAAUGGCGAAUGGGACCCA [C48U G54C]	1.2
GGCCGGCAUGGUCCCAGCCUCCUCGCUGGCGCCGGCUGGGCAACAUUUCGAGGUGACCGUCCCCUCGGUAAUGGCGAAUGGGACCCA [C48U G54U]	1.02
GGCCGGCAUGGUCCCAGCCUCCUCGCUGGCGCCGGCUGGGCAACAUUUCGAGGGUACCGUCCCCUCGGUAAUGGCGAAUGGGACCCA [C48U G55U]	1.11
GGCCGGCAUGGUCCCAGCCUCCUCGCUGGCGCCGGCUGGGCAACAUUUCGAGGGGACCCUCCCCUCGGUAAUGGCGAAUGGGACCCA [C48U G59C]	1.23
GGCCGGCAUGGUCCCAGCCUCCUCGCUGGCGCCGGCUGGGCAACAUUUCGAGGGGACCGUCCCCUCGGUAAUCGCGAAUGGGACCCA [C48U G73C]	0.422
GGCCGGCAUGGUCCCAGCCUCCUCGCUGGCGCCGGCUGGGCAACAUUUCGAGGGGACCGUCCCCUCGGUAAUGCCGAAUGGGACCCA [C48U G74C]	0.253
GGCCGGCAUGGUCCCAGCCUCCUCGCUGGCGCCGGCUGGGCAACAUUUCGAGGGGACCGUCCCCUCGGUAAUGGCAAAUGGGACCCA [C48U G76A]	1.08
GGCCGGCAUGGUCCCAGCCUCCUCGCUGGCGCCGGCUGGGCAACAUUUCGAGGGGACCGUCCCCUCGGUAAUGGCUAAUGGGACCCA [C48U G76U]	1.15
GGCCGGCAUGGUCCCAGCCUCCUCGCUGGCGCCGGCUGGGCAACAUUUCGAGGGGACCGUCCCCUCGGUAAUGGCGAAUGUGACCCA [C48U G81U]	0.327
GGCCGGCAUGGUCCCAGCCUCCUCGCUGGCGCCGGCUGGGCAACAUUUCGAGGGGACCGUCCCCACGGUAAUGGCGAAUGGGACCCA [C48U U65A]	0.876
GGCCGGCAUGGUCCCAGCCUCCUCGCUGGCGCCGGCUGGGCAACAUUCAGAGGGGACCGUCCCCUCGGUAAUGGCGAAUGGGACCCA [C49A]	0.965
GGCCGGCAUGGUCCCAGCCUCCUCGCUGGCGCCGGCUGGGCAACAUUCAGCGGGGACCGUCCCCUCGGUAAUGGCGAAUGGGACCCA [C49A A51C]	0.297
GGCCGGCAUGGUCCCAGCCUCCUCGCUGGCGCCGGCUGGGCAACAUUCAGGGGGGACCGUCCCCUCGGUAAUGGCGAAUGGGACCCA [C49A A51G]	0.748
